One substance from paper doi:10.1101/2023.07.24.550339 can be followed below.

The test addresses Rac1BD (MiniBAR70-208), recombinant (human) (UniProt O15063). Description: SEC-MALS. (Size exclusion chromatography separates by hydrodynamic size, large species first.)

Consider “Rac1Q61L, recombinant (from UniProt P63000 1-192) (natural protein)”, for which the stoichiometry N (Rac1 per Rac1BD homodimer) came out at 2.
